We go through 2 molecules from patent US10561709B2, “Methods and compositions of neuregulins for preventing, treating or delaying preserved ejection fraction cardiac failure” (Zensun (Shanghai) Science & Technology, Co., Ltd., priority 2014, dated 2020).

Assay [1] has as its system SHR hypertensive rats with heart failure. The experiment in a line: Hemodynamic measurement in hypertensive heart failure rats. The assay is classed as in vivo, rat. The conditions noted are these: captopril 10 mg/kg intragastric 2 times a day; for MAP / −dp/dt: hypertensive heart failure rats, after 3 treatment cycles, rhNRG 6.5 ug/kg i.v. once a day 5 days on/2 days off. How it is done:
(§1) The study is on the therapeutic effect of recombinant human neuregulin (rhNRG) in SHR hypertensive rats with heart failure. Methods: SHR hypertensive rat strains, normal feeding, monitoring changes of cardiac function during feeding. […] Hypertensive heart failure rats were randomly divided into negative control group, NRG treatment group and captopril treatment group. rhNRG was administered continuously for 5 days, withdrawing for 2 days in a treatment cycle, NRG group received 3 treatment cycles. At the end of the second and third treatment cycle, each group of rats was examined by echocardiography to determine the cardiac function changes. After the third treatment cycle, hemodynamics of the rats were detected.
(§2) The SHR hypertensive rat strains, normal feeding, and monitoring the cardiac function changes during the feeding.
After the model was successfully established, the rats were randomly divided into negative control group, NRG treatment group and captopril treatment group. RhNRG was administered intravenously, with a dose of 6.5 ug/kg, once a day, 5 days of continuous administration and 2 days of drug withdraw period as a treatment cycle. A total of 3 treatment cycles were administered. At the same time, the NRG group was given drinking water by intragastric administration two times a day. Captopril was administrated 10 mg/kg by intragastric administration, 2 times a day, continuous administration. NRG excipient was administrated by tail vein injection for 3 treatment cycles. The negative control group were given drinking water by intragastric administration and given NRG excipients by tail vein injection.
At the end of the third treatment cycle, the rats were anesthetized with 3% pentobarbital by intraperitoneal injection. Median incision was made in the neck, the left common carotid artery was isolated and intubated, and the arterial and left ventricular hemodynamic parameters were measured.

The test system is the same in assay [2]. The experiment in a line: Echocardiography examination in hypertensive heart failure rats. The class given is in vivo, rat. The conditions noted are these: rhNRG 6.5 ug/kg, after 2 cycles or 3 cycles of treatment. How it is done: as §1, §2
After the model was successfully established, the rats were randomly divided into negative control group, NRG treatment group and captopril treatment group. RhNRG was administered intravenously, with a dose of 6.5 ug/kg, once a day, 5 days of continuous administration and 2 days of drug withdraw period as a treatment cycle. A total of 3 treatment cycles were administered. At the same time, the NRG group was given drinking water by intragastric administration two times a day. […]

The subject of assay [3] is patients with heart failure with preserved ejection fraction. The experiment in a line: Mitral valve flow spectrum of two-dimensional echocardiography, preliminary clinical trial. The assay is classed as in vivo, human. How it is done:
To evaluate the effect of recombinant human neuregulin on cardiac function of patients with heart failure with preserved ejection fraction, the preliminary clinical trial was carried out in the Sixth People's Hospital Affiliated to Shanghai Jiao Tong University, which comprises 2 patients in the placebo group and 2 patients in the experiment group.
1.1 left ventricular ejection fraction (LVEF) ≥50% (two-dimensional echocardiography diagnosis);
1.2 New York heart function (NYHA) II or III level;
4. Data collection: Mitral valve flow spectrum of two-dimensional echocardiography was detected during the screening period, 11-13 d and 30 d.

Setting [4] is: patient 8003, 0.3 ug/kg/day i.v. drip 10 hours a day for 10 days, 11-13 d.
Where [5] appears, read: patient 8003, 0.3 ug/kg/day i.v. drip 10 hours a day for 10 days, 30 d.
The mark [6] stands for this setting: patient 8003, 0.3 ug/kg/day i.v. drip 10 hours a day for 10 days, screening period (before treatment).
[7] abbreviates: patient 8004, 0.3 ug/kg/day i.v. drip 10 hours a day for 10 days, 11-13 d.
[8] abbreviates: patient 8004, 0.3 ug/kg/day i.v. drip 10 hours a day for 10 days, 30 d.
Setting [9] is: patient 8004, 0.3 ug/kg/day i.v. drip 10 hours a day for 10 days, screening period (before treatment).

As for `C[C@H](CS)C(=O)N1CCC[C@H]1C(=O)O` [captopril, reference compound], in assay [1], the MAP was determined as 139.9 ± 24.8 and the “−dp/dt” value is −5441.2 ± 1007.3. In assay [1] (hypertensive rats, vs 216.5±23.2 and 228.0±26.0 in the other groups (p=0.029, p=0.017)), this molecule registered a blood pressure of 174.5±33.0.

B1: NRG: Recombinant human neuregulin, Neucardin™, 61 amino acids, produced by Shanghai Zensun Sci & Tech Co., Ltd. (protein)
chain: SHLVKCAEKEKTFCVNGGECFMVKDLSNPSRYLCKCPNEFTGDRCQNYVMASFYKAEELYQ
modifications: homo sapiens
B1 registered an MAP in assay [1] of 182.5 ± 18.8. Further, in assay [1], the “−dp/dt” value is reported as −7467.6±715.8. Moreover, in assay [2], the “left ventricular end diastolic and end systolic volume” value is “prevent further left ventricular end diastolic and end systolic volume enlargement”. Also, the DT in assay [3] (setting [4]) is listed as 203.7 ms; in assay [3] (setting [5]), 179.5 ms; in assay [3] (setting [6]) it was 229.08 ms; in assay [3] (setting [7]), 256.15 ms; in assay [3] (setting [8]), 255.14 ms; in assay [3] (setting [9]), 262.28 ms. Moreover, the IVRT in assay [3] (setting [4]) is given as 340.1 ms; in assay [3] (setting [5]), 345 ms; in assay [3] (setting [6]), 374.31 ms; in assay [3] (setting [7]), 609.28 ms; in assay [3] (setting [8]) it was 499.08 ms; in assay [3] (setting [9]), 621.07 ms. For the same molecule, the “IVRT and DT values, change over the trial” value in assay [3] (patients administered with NRG 0.3 ug/kg/day, versus placebo patients whose values gradually increased) was “significantly decreased”.
